Source: patent US20180030151A1 (MOGAM INSTITUTE FOR BIOMEDICAL RESEARCH, published 2018)
Read-outs that look alike come from different tables or passages of the source.

B1: clone 2 (antibody, V domains shown)
VH: EVQLVESGGGLVKPGGSLRLSCAASGFTFSSYAMNWVRQAPGKGLEWVSTITTGGSYTYYADSVEGRFTISRDNAKNSLYLQMNSLRAEDTAVYYCARQDGNFLMDYWGQGTLVTVSS
VL: DVVMTQTPLSLPVTLGQPASISCKSSPSLLDIDGKTYLNWLQQRPGQSPKRLIYLVSKLDSGVPDRFTGSGSGTDFTLKISRVEAEDVGVYYCWQGTHFPFTFGQGTKVEIKR
B2: clone 21 (antibody, V domains shown)
VH: EVQLVESGGGLVKPGGSLRLSCAASGFTFSSYAMNWVRQAPGKGLEWVSTITKGGSYTYYADSVDGRFTISRDNAKNSLYLQMNSLRAEDTAVYYCARQDGNFLMDYWGQGTLVTVSS
VL: DVVMTQTPLSLPVTLGQPASISCKSSPSLLDSDGKTYLNWLQQRPGQSPKRLIYLVSKLDSGVPDRFTGSGSGTDFTLKISRVEAEDVGVYYCWQGTHFPFTFGQGTKVEIKR
B3: clone 3 (antibody, V domains shown)
VH: EVQLVESGGGLVKPGGSLRLSCAASGFTFSSYAMNWVRQAPGKGLEWVGTITTGGSHTYYADSVDGRFTISRDNAKNSLYLQMNSLRAEDTAVYYCARQDGNFLMDYWGQGTLVTVSS
VL: DVVMTQTPLSLPVTLGQPASISCKSSPSLLDVDGKTYLNWLQQRPGQSPKRLIYLVSKLDSGVPDRFTGSGSGTDFTLKISRVEAEDVGVYYCWQGTHFPFTFGQGTKVEIKR
B4: clone 23 (antibody, V domains shown)
VH: EVQLVESGGGLVKPGGSLRLSCAASGFTFSHYAMNWVRQAPGKGLEWVSTITTGGSYTYYADSVEGRFTISRDNAKNSLYLQMNSLRAEDTAVYYCARQDGHFLMDYWGQGTLVTVSS
VL: DVVMTQTPLSLPVTLGQPASISCKSSPSLLDIDGKTYLNWLQQRPGQSPKRLIYLVSKLDSGVPDRFTGSGSGTDFTLKISRVEAEDVGVYYCWQGTHLPFTFGQGTKVEIKR
B5: clone 16 (antibody, V domains shown)
VH: EVQLVESGGGLVKPGGSLRLSCAASGFTFSHYAMTWVRQAPGKGLEWVSTITTGGSHTYYADSVEGRFTISRDNAKNSLYLQMNSLRAEDTAVYYCARQDGNFLMDYWGQGTLVTVSS
VL: DVVMTQTPLSLPVTLGQPASISCKSSPSLLDIDGKTYLNWLQQRPGQSPKRLIYLVSKLDSGVPDRFTGSGSGTDFTLKISRVEAEDVGVYYCWQGTHFPFTFGQGTKVEIKR
B6: clone 8 (antibody, V domains shown)
VH: EVQLVESGGGLVKPGGSLRLSCAASGFTFSSYAMNWVRQAPGKGLEWVSTITTGGSYTYYADSVEGRFTISRDNAKNSLYLQMNSLRAEDTAVYYCARQDGNFLMDYWGQGTLVTVSS
VL: DVVMTQTPLSLPVTLGQPASISCKSSPSLLDVDGKTYLNWLQQRPGQSPKRLIYLVSKLDSGVPDRFTGSGSGTDFTLKISRVEAEDVGVYYCWQGTHFPFTFGQGTKVEIKR
B7: clone 13 (antibody, V domains shown)
VH: EVQLVESGGGLVKPGGSLRLSCAASGFTFSSYAMNWVRQAPGKGLEWVGTITTGGSHTYYADSVEGRFTISRDNAKNSLYLQMNSLRAEDTAVYYCARQDGNFLMDYWGQGTLVTVSS
VL: DVVMTQTPLSLPVTLGQPASISCKSSPSLLDIDGKTYLNWLQQRPGQSPKRLIYLVSKLDSGVPDRFTGSGSGTDFTLKISRVEAEDVGVYYCWQGTHFPFTFGQGTKVEIKR

Key:
Assay in all cases: cell-based or functional assay
[1] = target: T1, recombinant human TFPI (tissue factor pathway inhibitor) (human, UniProt P10646 29-304)
[2] = target: T1, recombinant human TFPI (tissue factor …); remark: listed apart in the source
[3] = target: T1, recombinant human TFPI (tissue factor …); remark: listed apart in the source
[4] = target: T1, recombinant human TFPI (tissue factor …); remark: listed apart in the source
[5] = target: T1, recombinant human TFPI (tissue factor …); remark: listed apart in the source
[6] = target: T1, recombinant human TFPI (tissue factor …); remark: listed apart in the source
[7] = target: T1, recombinant human TFPI (tissue factor …); remark: listed apart in the source
[8] = target: T1, recombinant human TFPI (tissue factor …); remark: listed apart in the source

Binder	FXa assay % of FXa alone, 2.5 nM Ab, 10 nM TFPI [1] [%]	FXa assay % of FXa alone, 5 nM Ab, 10 nM TFPI [1] [%]	FXa assay OD, 2.5 nM Ab, 10 nM TFPI [1]	FXa assay OD, 5 nM Ab, 10 nM TFPI [1]	FXa assay OD, 10 nM Ab, 10 nM TFPI [1]	FXa assay OD, 20 nM Ab, 10 nM TFPI [1]	FXa assay % of FXa alone, 2.5 nM Ab, 10 nM TFPI [2] [%]	FXa assay % of FXa alone, 5 nM Ab, 10 nM TFPI [2] [%]	FXa assay OD, 2.5 nM Ab, 10 nM TFPI [2]	FXa assay OD, 5 nM Ab, 10 nM TFPI [2]	FXa assay OD, 10 nM Ab, 10 nM TFPI [2]	FXa assay OD, 20 nM Ab, 10 nM TFPI [2]	A405, TF/FVIIa/FX complex assay (FX 5 nM), Ab 1.56 nM [3]	A405, TF/FVIIa/FX complex assay (FX 5 nM), Ab 3.13 nM [3]	A405, TF/FVIIa/FX complex assay (FX 5 nM), Ab 6.25 nM [3]	A405, TF/FVIIa/FX complex assay (FX 5 nM), Ab 12.5 nM [3]	A405, TF/FVIIa/FX complex assay (FX 5 nM), Ab 25 nM [3]	A405, TF/FVIIa/FX complex assay (FX 5 nM), Ab 50 nM [3]	effect of inhibiting TFPI, FXa activity assay, Ab 10 nM [4] [%]	effect of inhibiting TFPI, FXa activity assay, Ab 20 nM [4] [%]	further results
B1	8.2	45.3	0.0625	0.345	0.602	0.58	7.3	32.8	0.0605	0.271	0.632	0.721	0.045	0.045	0.052	0.083	0.416	0.735	~79	~76	FXa assay % of FXa alone, 10 nM Ab, 10 nM TFPI [2]: 76.5%; FXa assay % of FXa alone, 20 nM Ab, 10 nM TFPI [2]: 87.2%; A405, TF/FVIIa/FX complex assay (FX 5 nM), Ab 100 nM [3]: 0.835; % of Normalized, TF/FVIIa/FX complex assay (FX 5 nM), Ab 1.56 nM [5]: 5.5%; % of Normalized, TF/FVIIa/FX complex assay (FX 5 nM), Ab 3.13 nM [5]: 5.6%; % of Normalized, TF/FVIIa/FX complex assay (FX 5 nM), Ab 6.25 nM [5]: 6.4%; % of Normalized, TF/FVIIa/FX complex assay (FX 5 nM), Ab 12.5 nM [5]: 10.3%; % of Normalized, TF/FVIIa/FX complex assay (FX 5 nM), Ab 25 nM [5]: 51.4%; % of Normalized, TF/FVIIa/FX complex assay (FX 5 nM), Ab 50 nM [5]: 90.9%; % of Normalized, TF/FVIIa/FX complex assay (FX 5 nM), Ab 100 nM [5]: 103%
B2																					FXa assay % of FXa alone, 2.5 nM Ab, 10 nM TFPI [6]: 5.9%; FXa assay % of FXa alone, 5 nM Ab, 10 nM TFPI [6]: 6%; FXa assay % of FXa alone, 10 nM Ab, 10 nM TFPI [6]: 6.5%; FXa assay % of FXa alone, 20 nM Ab, 10 nM TFPI [6]: 7.2%
B3	10.8	45.5	0.0825	0.346	0.536	0.618							0.045	0.046	0.059	0.141	0.527	0.743	~70	~81	A405, TF/FVIIa/FX complex assay (FX 5 nM), Ab 100 nM [3]: 0.842; % of Normalized, TF/FVIIa/FX complex assay (FX 5 nM), Ab 1.56 nM [5]: 5.6%; % of Normalized, TF/FVIIa/FX complex assay (FX 5 nM), Ab 3.13 nM [5]: 5.7%; % of Normalized, TF/FVIIa/FX complex assay (FX 5 nM), Ab 6.25 nM [5]: 7.2%; % of Normalized, TF/FVIIa/FX complex assay (FX 5 nM), Ab 12.5 nM [5]: 17.4%; % of Normalized, TF/FVIIa/FX complex assay (FX 5 nM), Ab 25 nM [5]: 65.1%; % of Normalized, TF/FVIIa/FX complex assay (FX 5 nM), Ab 50 nM [5]: 91.8%; % of Normalized, TF/FVIIa/FX complex assay (FX 5 nM), Ab 100 nM [5]: 104%
B4																					FXa assay % of FXa alone, 2.5 nM Ab, 10 nM TFPI [6]: 6.9%; FXa assay % of FXa alone, 5 nM Ab, 10 nM TFPI [6]: 7.4%; FXa assay % of FXa alone, 10 nM Ab, 10 nM TFPI [6]: 10.4%; FXa assay % of FXa alone, 20 nM Ab, 10 nM TFPI [6]: 62.5%; FXa assay OD, 2.5 nM Ab, 10 nM TFPI [6]: 0.082; FXa assay OD, 10 nM Ab, 10 nM TFPI [6]: 0.124; FXa assay OD, 20 nM Ab, 10 nM TFPI [6]: 0.745
B5																			~34	~55	FXa assay % of FXa alone, 2.5 nM Ab, 10 nM TFPI [6]: 7.3%; FXa assay % of FXa alone, 5 nM Ab, 10 nM TFPI [6]: 10.2%; FXa assay OD, 2.5 nM Ab, 10 nM TFPI [6]: 0.0865; FXa assay OD, 5 nM Ab, 10 nM TFPI [6]: 0.122; FXa assay OD, 10 nM Ab, 10 nM TFPI [6]: 0.405; FXa assay OD, 20 nM Ab, 10 nM TFPI [6]: 0.651
B6	7.1	33.8	0.054	0.258	0.527	0.61	7.4	31	0.0615	0.256	0.583	0.64	0.041	0.05	0.052	0.088	0.391	0.673	~69	~80	FXa assay % of FXa alone, 10 nM Ab, 10 nM TFPI [2]: 70.5%; FXa assay % of FXa alone, 20 nM Ab, 10 nM TFPI [2]: 77.5%; A405, TF/FVIIa/FX complex assay (FX 5 nM), Ab 100 nM [3]: 0.834; % of Normalized, TF/FVIIa/FX complex assay (FX 5 nM), Ab 1.56 nM [5]: 5.1%; % of Normalized, TF/FVIIa/FX complex assay (FX 5 nM), Ab 3.13 nM [5]: 6.1%; % of Normalized, TF/FVIIa/FX complex assay (FX 5 nM), Ab 6.25 nM [5]: 6.4%; % of Normalized, TF/FVIIa/FX complex assay (FX 5 nM), Ab 12.5 nM [5]: 10.8%; % of Normalized, TF/FVIIa/FX complex assay (FX 5 nM), Ab 25 nM [5]: 48.3%; % of Normalized, TF/FVIIa/FX complex assay (FX 5 nM), Ab 50 nM [5]: 83.2%; % of Normalized, TF/FVIIa/FX complex assay (FX 5 nM), Ab 100 nM [5]: 103%
B7							7.8	44.8	0.0645	0.37	0.624	0.706							~76	~85	% of Normalized, TF/FVIIa/FX complex assay, Ab 1.56 nM [7]: 5.4%; % of Normalized, TF/FVIIa/FX complex assay, Ab 3.13 nM [7]: 6.4%; % of Normalized, TF/FVIIa/FX complex assay, Ab 6.25 nM [7]: 8.8%; % of Normalized, TF/FVIIa/FX complex assay, Ab 12.5 nM [7]: 11.9%; % of Normalized, TF/FVIIa/FX complex assay, Ab 25 nM [7]: 62.2%; % of Normalized, TF/FVIIa/FX complex assay, Ab 50 nM [7]: 96.5%; % of Normalized, TF/FVIIa/FX complex assay, Ab 100 nM [7]: 101%; A405, TF/FVIIa/FX complex assay, Ab 1.56 nM [8]: 0.046; A405, TF/FVIIa/FX complex assay, Ab 3.13 nM [8]: 0.054; A405, TF/FVIIa/FX complex assay, Ab 6.25 nM [8]: 0.075; A405, TF/FVIIa/FX complex assay, Ab 12.5 nM [8]: 0.101; A405, TF/FVIIa/FX complex assay, Ab 25 nM [8]: 0.528; A405, TF/FVIIa/FX complex assay, Ab 50 nM [8]: 0.818; A405, TF/FVIIa/FX complex assay, Ab 100 nM [8]: 0.859
